Laboratory results taken from the supplement of paper PMC9170038.

test system: MS2 coat protein; experiment: apparent KD of MS2 coat protein, switch OFF state (with FMN for OFF switches, without FMN for ON switches); designed switch direction (-1 OFF switch, 1 ON switch): -1; higher = weaker reporter binding; details: FMN input: 0 or 200 uM; Eterna round: R93 (includes R88 designs)
Procedure, shortened: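 Binding of SNAP-549-labelled MS2 coat protein was measured on designed RNA switches transcribed on-chip from Illumina sequencing clusters. The protein rose in twofold steps from 0.7 or 1.5 nM to 3 µM, with 0.8–1.5 h per step early on and 10–20 min per step later, in 100 mM Tris-HCl pH 7.5, 80 mM KCl, 4 mM MgCl2, without or with constant ligand. Each design's apparent KD is the median of fits to its normalised cluster binding curves.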

Q: How did the “apparent KD of MS2 coat protein” value turn out when “CUCAAGUGAGGAUAUUUAAGAAAAGAAGAGAAAGAAAAGAAAAAGAAGGCACAUGAGGAUCACCCAUGUAAGAA [EteRNA is fun!]” was run?
A: 32.8 nM

Q: Which “apparent KD of MS2 coat protein” value does the source give for “AGAACGUGAGGAUAUACUAACAAACCUCAACAAACAAACAGACAUGAGGAUCACCCAUGUAGAAGGCACAAAAA [EXC - 2]” here?
A: 27.2 nM

Q: With “AAAAAACAUGAGGAUCACCCAUGUGAGGAUAUCGCUAGUCAGUCAUCAGAGUGAGUGAUGAGAAGGCACAUAAA [Brourd 613 Mod 6 - Jieux - Exclusion 1]” as the sequence, how does the “apparent KD of MS2 coat protein” value read?
A: 31.9 nM

Q: “AAGAAAGCAGGAUAUACAAGAAAGAAAGAAAAGAAAAGAAAACAUGAGGAUCACCCAUGUAGAAGGGCUUAGAA [EteRNA is fun!]” was tested. Which “apparent KD of MS2 coat protein” value did it give?
A: 23.1 nM

Q: With “UCCUCACAUGAGGAUCACCCAUGUGAGGAUAUGUACAUCAGGAAAAAAAAACUGAUGUACAGAAGGCACAUGAA [Design 10: Super Stable G-C 3]” as the sequence, how does the “apparent KD of MS2 coat protein” value read?
A: 16.5 nM

Q: With “CUCUUGUAAGGAUAUAAAUGAAAAGAAGUGAAAGAAAAGAAUUAGAAGGUACAUGAGGAUCACCCAUGUUAGAA [EteRNA is fun!]” as the sequence, how does the “apparent KD of MS2 coat protein” value read?
A: 18.5 nM

Q: Which “apparent KD of MS2 coat protein” value does the source give for “AGGGAGUAAGGAUAUGAGAAAUAAAAAGAAGGAAAAAAAGAUCAGAAGGUACAUGAGGAUCACCCAUGUGGGAA [milkweed 10]” here?
A: 39.9 nM

Q: Which “apparent KD of MS2 coat protein” value does the source give for “AAUGAUUUAGGAUAUACAUGAGGAUCACCCAUGUUCAAAUCGUGGGUCAGGUGAGAAGGUAGAAGGAAAUCACU [Soberior]” here?
A: 185 nM

Q: Which “apparent KD of MS2 coat protein” value does the source give for “AAACUACUAGGAUAUACAACGGUGUCCUAACUACUAAGAAAACAUGAGGAUCACCCAUGUAGAAGGAGUAAUAA [Cearused]” here?
A: 78.2 nM

Q: Which “apparent KD of MS2 coat protein” value does the source give for “AAAAAACAUGAGGAUCACCCAUGUGAGGAUAUGACGUAAAUAAAGAAAGAAGAAAUCGUCAGAAGGCACAAAAA [55%, Disencluded 2, 6]” here?
A: 41 nM

Q: “AACCAACAUGAGGAUCACCCAUGUCAGGAUAUGCAAAUAACAAACAACAAACAACAAAGCAGAAGGGACAACAA [Mat - Exclusion 1 - Eli mod - D50]” was tested. Which “apparent KD of MS2 coat protein” value did it give?
A: 20.5 nM

Q: For “AAAAAACAUGAGGAUCACCCAUGUGAGGAUAUGACGUAAAUAAAGAAAGAAGAAAUCGUCAGAAGGCACACCAA [55%, Disencluded 2, 5]”, which “apparent KD of MS2 coat protein” value is on record?
A: 43.1 nM

Q: For “AAAAAACAUGAGGAUCACCCAUGUGAGGAUAUCGCUAGUCAGUCCCUAGAGUGAGUGAUGAGAAGGCACAUAAA [Brourd 613 Mod 7 - Jieux - Exclusion 1]”, which “apparent KD of MS2 coat protein” value is on record?
A: 49.6 nM

Q: “AAAAAACAUGAGGAUCACCCAUGUGAGGAUAUACAAAGAAAGACAGGCAAGUAAAGAGGUAGAAGGCGCAAAAA [Default title]” was tested. Which “apparent KD of MS2 coat protein” value did it give?
A: 18.2 nM

Q: “AAAAAGUCAGGAUAUACGAAAGUGCGAAAGCACAAAAAGAGACAUGAGGAUCACCCAUGUAGAAGGGACAAGAA [Married to this design, 61% 2]” was tested. Which “apparent KD of MS2 coat protein” value did it give?
A: 17.8 nM

Q: “AGCUAGUGAGGAUAUACGAACAUGUCAACGGACUGUAAGGGACAUGAGGAUCACCCAUGUAGAAGGCACUAGCA [Diamond 57]” was tested. Which “apparent KD of MS2 coat protein” value did it give?
A: 165 nM

Q: Which “apparent KD of MS2 coat protein” value does the source give for “GGUUGUGAAGGAUAUACAUGAGGAUCACCCAUGUGAGAGAAAAAAGUGAGAAAGAAAAGUAGAAGGUCAUGACG [salish99-ex3-64]” here?
A: 76.2 nM

Q: How did the “apparent KD of MS2 coat protein” value turn out when “AAAAUAAAAGGAUAUAAAAAUAAAAGUCAGGAUAUAGGAAACUAGAAGGGACAUGAGGAUCACCCAUGUAAAAU [Meechl Ex4 R2 m1]” was run?
A: 33.8 nM

Q: For “AAAAAGUGAGGAUAUUCGGAUAGGAAAACGAAAACCUAUCCGAAGAAGGCACAUGAGGAUCACCCAUGUAAAAA [67% Ecls-II - Early G segment 1]”, which “apparent KD of MS2 coat protein” value is on record?
A: 37.6 nM

Q: “AAAAAACAUGAGGAUCACCCAUGUGAGGAUAUCGUAAACAAAAAAAACAAAAACAAAUCGAGAAGGCACAAAAA [Amethyst 34]” was tested. Which “apparent KD of MS2 coat protein” value did it give?
A: 35.1 nM

Q: “AGGGAGUGAGGAUAUGCGAAAGAAAAAGAAGGAAAAAAAGAGCAGAAGGUACAUGAGGAUCACCCAUGUAAAAA [milkweed 8]” was tested. Which “apparent KD of MS2 coat protein” value did it give?
A: 16.9 nM

Q: For “ACAAACCAAGGAUAUACAUGAGGAUCACCCAUGUGUUCGGCGUUUAGCAUGGGCAGCAGUAGAAGGUGGAGAAA [Dilareat]”, which “apparent KD of MS2 coat protein” value is on record?
A: 93.1 nM

Q: How did the “apparent KD of MS2 coat protein” value turn out when “AAAAAAGGAGGAUAUACGUACAUGUCAAAAGACGUGAAGGGACAUGAGGAUCACCCAUGUAGAAGGUCUAAAAA [JL Part Open 36]” was run?
A: 17.9 nM

Q: For “AAAUGACAUGAGGAUCACCCAUGUCAGGAUAUGACUUGAAAAAAAAAAAAAAAACAUGUCAGAAGGGACAUGGG [Design 50: Sub-opt FB]”, which “apparent KD of MS2 coat protein” value is on record?
A: 9.45 nM

Q: With “CUCAUGUGAGGAUAUCAGUAGUAAAAAAAAAAAAUUACUACUGAGAAGGCACAUGAGGAUCACCCAUGUGCCUU [EX4 325: Super Stable 25]” as the sequence, how does the “apparent KD of MS2 coat protein” value read?
A: 15.5 nM

Q: “GACUAGUCAGGAUAUACGAACAUGUCAAAAGACGUGAAGGAACAUGAGGAUCACCCAUGUAGAAGGGACUAGCA [Diamond 19]” was tested. Which “apparent KD of MS2 coat protein” value did it give?
A: 17.7 nM

Q: With “AAAACUAGAGGAUAUACGAACAUGUCAAAAGACGUGAAGGGACAUGAGGAUCACCCAUGUAGAAGGCUAGAAAA [JL Stem Breaker 11]” as the sequence, how does the “apparent KD of MS2 coat protein” value read?
A: 71.9 nM

Q: How did the “apparent KD of MS2 coat protein” value turn out when “AGUUGGCGAGGAUAUACAUGAGGAUCACCCAUGUGAGAGAAAAACUCGAAAGAGAAAAGUAGAAGGCGCUGACA [73%, Moding Norbert Elias, 6]” was run?
A: 82.2 nM

Q: How did the “apparent KD of MS2 coat protein” value turn out when “CUCAUGUGAGGAUAUCAGUAGUAAAAAAAUAAAAUUACUACUGAGAAGGCACAUGAGGAUCACCCAUGUGCCAA [EX4 337: Super Stable 37]” was run?
A: 27.6 nM

Q: How did the “apparent KD of MS2 coat protein” value turn out when “AUCUUGUGAGGAUAUGCAUGAAAUGAAGUGAAAGAAAAGAAGCAGAAGGCACAUGAGGAUCACCCAUGUUAGAA [EteRNA is fun!]” was run?
A: 62.2 nM

Q: How did the “apparent KD of MS2 coat protein” value turn out when “AGGAUGUCAGGAUAUGUGUAAAGAAUAAAACAAAUAACAACACAGAAGGGACAUGAGGAUCACCCAUGUUACCA [May 37]” was run?
A: 20.9 nM

Q: “CUCAAGUGAGGAUAUUCAAGAAAAGAAAAGAAAGAAAAGAAGAAGAAGGCACAUGAGGAUCACCCAUGUAAGAA [EteRNA is fun!]” was tested. Which “apparent KD of MS2 coat protein” value did it give?
A: 57.5 nM

Q: Which “apparent KD of MS2 coat protein” value does the source give for “AGCUAGUCAGGAUAUACGAACAUGUCAGAAGACGUGAAGGGACAUGAGGAUCACCCAUGUAGAAGGGACUAGCG [74%, Web mod - With 2 more G's]” here?
A: 117 nM

Q: “AAAAAUGGAGGAUAUACAUGAGGAUCACCCAUGUGUGACUAUACUAUGUGCUCUUCAGGUAGAAGGCCAAAAAA [Gilly Gone Silly 19 - Jieux - Exclusion 3]” was tested. Which “apparent KD of MS2 coat protein” value did it give?
A: 249 nM

Q: Which “apparent KD of MS2 coat protein” value does the source give for “AACAUGUAAGGAUAUAGAAGAAAAGAAAAGAAAGAAAAGAACUAGAAGGUACAUGAGGAUCACCCAUGUAAGAA [EteRNA is fun!]” here?
A: 16.2 nM

Q: “AAUUAGUGAGGAUAUACAUGAGGAUCACCCAUGUGUAAAAAAAAACGCAAAAAAGAAUGUAGAAGGCACUAAAA [Ex 3 Cold]” was tested. Which “apparent KD of MS2 coat protein” value did it give?
A: 37.9 nM

Q: With “AAAAAUGGAGGAUAUACAUGAGGAUCACCCAUGUGUAACUAUACUAAGCACAAACCACGUAGAAGGCCAAAAAA [Gilly Gone Silly 11 - Jieux - Exclusion 3]” as the sequence, how does the “apparent KD of MS2 coat protein” value read?
A: 78.3 nM

Q: “AACUGACAUGAGGAUCACCCAUGUCAGGAUAUGAUUUGACGAAAUAAAAUAAGUCAUAUCAGAAGGGACAUGGG [Design 83: Sub-opt VB]” was tested. Which “apparent KD of MS2 coat protein” value did it give?
A: 21.2 nM

Q: With “AAAAGCAGAGGAUAUACAUAAUUAUGACGAAAGUCAUAAAAACAUGAGGAUCACCCAUGUAGAAGGCUGCAAAA [MOD of Meechl's MS2 Ex2 (MS2 riboswitches - Exlclusion 2)]” as the sequence, how does the “apparent KD of MS2 coat protein” value read?
A: 28.1 nM

Q: “AGUCAUACAGGAUAUACAUGAGGAUCACCCAUGUAUAUCCAAAAAAGGUGAUCCUCAUGUAGAAGGGUAUGACA [EX3 202: Super Stable 2]” was tested. Which “apparent KD of MS2 coat protein” value did it give?
A: 26.9 nM

Q: With “GAAAAGUGAGGAUAUGCGAAGGCGUCUGAUAGACGAGGCUAGCAGAAGGCACAUGAGGAUCACCCAUGUGGGAG [Mat - Exclusion 4 - Eli mod - D92]” as the sequence, how does the “apparent KD of MS2 coat protein” value read?
A: 76.4 nM

Q: For “ACAGUUACAGGAUAUACAUGGGUGAAAAAAGUAUAUCCACUACAUGAGGAUCACCCAUGUAGAAGGGUAACUGA [Ex2 Design 174: Random 3]”, which “apparent KD of MS2 coat protein” value is on record?
A: 12.3 nM

Q: With “AAGGGACAUGAGGAUCACCCAUGUGAGGAUAUGAUGCGAAUAAAGAAAGAAGAAAGCAUCAGAAGGCACACCAA [58%, Disencluded 3, 7]” as the sequence, how does the “apparent KD of MS2 coat protein” value read?
A: 146 nM

Q: How did the “apparent KD of MS2 coat protein” value turn out when “AGUAUGCGAGGAUAUACAUGAGGAUCACCCAUGUGAGAGAUAAGUGUGAGAAAGACAUGUAGAAGGCGCGUACA [JL Lego Mod 28]” was run?
A: 35.1 nM
